Assay: soluble on expression in E. coli; label from the status in PepcDB or PDB records

| Sequence | soluble on expression in E. coli |
| --- | --- |
| SLFQIGDNIVYPMHGAGIIEAIEEKEFLEEKQQYYVIRMSISNMTVMIPTSKILSSNIRPVTDILALKHIMHIFQHGESDRLLPWKQRYKINTDKIKTGEIQEGAEVVRDLMRMKKEKALNASEKKMLDNAYEFLISELEVIKGITEKQIKSFG | soluble |
| MGIPKEGEFVTIQSYKHDGHLHRTWRDTMVLKTSEYSLIGVNDHTLVTESDGRRWVTREPAIVYFHKKYWFNIIAMIREKGVSYYCNLASPYVLDDEALKYIDYDLDIKVFPDGEKRLLDVDEYEFHSKLMDYPEDIDFILKENVKTLVDWINNEKGPFSPEYVDIWYQRYQQLSKK | not soluble |
| MKRRCVFMRLSLLDYVPLFEGRTPNDALKHSIKLAQHAEKLGYLRYWVAEHHQVYSVVSSAPEIIMMSILEHTQHIRVGSGGVMLPHYSPYKVAEQFKIMEARHPQRIDMAIGRSPSFKNVNAALNENKNEKLPFNTQITDLLKYFNNDTTQDHRFKSLLATPMVTSFPQLYILGMSNRSAKLAAQRGLPFVIARMGQSETDLHEAISTYRKYFKAYHGEINNAKPYVILATFVVTASNLSRVKQLLHTLQLWLMRINYLNQPKSYPSIETAQNKHYSQRELEKLEKMKSKIIYGMPNDVAEQLTLLHQQFKVDEIIILPHVFGEDARMELIELIANELIPSCSRDEF | not soluble |
| DFGKAMYIDNPRDHAVKHFSKVYQCQSADDVQAVKKKLYDDKTAIIEKVAEQTKSFDVASTQVSGRSLKGSIDVPTLPALPQPETRQGAPKLSVLISSAQEAMLCEYQDIDVYYQLPMGLSGELSAMIELFQANPMLKPWFPAILIGEDYQAARVFLETIQPELLITNNSGVGMITKELGLGWVAGPQMNTVNSYAFKCLQDEFAASGAFVSNELNMKQMRHIKRPKNMRSFYSIYHPNTLLTSRQCLFQQTEGCRKVKVNKGCLKRCDKRTSIINLKDNPYVVQKQKGSHNSIYSEHNVLNLQVLHDLPQLFTDVLIDLRDIQTETKVSASKPELIDAFLALLEDHSEQAIQTLNAMIQPTANAQYLKGL | not soluble |
| SNAMAALPDKEKLLRNFTRCANWEEKYLYIIELGQRLAELNPQDRNPQNTIHGCQSQVWIVMRRNANGIIELQGDSDAAIVKGLMAVVFILYHQMTAQDIVHFDVRPWFEKMALAQHLTPSRSQGLEAMIRAIRAKAATLS | soluble |
| MGSDKIHHHHHHMKKAAIITIGSELLEGLILNKNAQFLCQELKNLGYRVVKVSTVGDDLISISEEVKTLLLKVDLLILTGGLGPTQDDLTRDAVAKVLNRSLKLNEELLSKIKEKIKKYHSEIPQNIERQALVIDGAEVLDNPVGSAPGQLLTVDGKIVILLPGPPRELIPMFNALKDRLRTPDALYQVVLKYYSIPEAVLEDLLKDILYSQNIVEVATMADHVEGVRLRLTTHMKNKEYLDEMVKKILDKTGEHLYGVNDEKMEEVVVRLLKDRKKTLAVAESCTGGMLSSLVVNVPGASEVFIGGVVAYSNDLKKHILGVREDTLKKHGAVSEECVQEMTEGLKKLTGADICVSISGIAGPSGGTPEKPVGTVFIDIFEHEHITMRYNFTGDRNMIRTRSAMMALENLRKYLKGRERV | not soluble |
| MARALADLSVNLQVPRVVPSPDSDSDTDLEDPSPRRSAGGLHRSQVIHSGHFMVSSPHSDSLTRRRDQEGPVGLADFGPRSIDPTLTHLFECLSLAYSGKLVSPKWKNFKGLKLLCRDKIRLNNAIWRAWYIQYVQRRKSPVCGFVTPLQGSEADEHRKPEAVILEGNYWKRRIEVVMREYHKWRIYYKKRVSGTDTCRPWVLRVLEGIARPHPNPYL | soluble |
| MAHHHHHHMYKYEKLYFFMCWKKCRFNNLTKVFLHSSNDYYNNLNVIKKEKGIFEKLLCIGNYNVDNFCFDKELYEKYRECIKNDYEKIRIKLKERKQNEYNNIHSKNLEHNESNICNNNNNNNINVYESYLYNIIQNNDYKDILISDVIYENGKNILCIGEANLSFSLLLQKNLNLCKVVSTSREDESVLIKKFGKKYFSKNLKLLESSGGIYIPNMNVENLSNQFLKNTFDIIIFNFPFVLPTKECIEKKWNIKLEREEIYSDNLKNETNSNNNSNSNNNNKSNNNNGNNNSSNNVYIKYYKKTEYFLLNKLIYHLFKCASHLLKNEGFLHIRLNDKYLTCSFPKNMSLSFLQKIDFSNSYIIYKSLKYVPSLFDCTFLNYEDKKKEKTKNNVIFTSSGKKIFKSFKMKHTSTLIFQKI | not soluble |
| MAHHHHHHMQKHNIKLNQNQDISQLFHDEVPLFDNSITSKDKEVIETLSEIYSIVITLDHVEKAYLKDSIDDTQYTNTVDKLLKQFKVYLNSQNKEEINKHFQSIEAFCDTYNITASNAITRLERGIPITAEHAISTTTSAPSGDNKQSSSSDKK | soluble |
| MTTRNPNRCPSHPGEILAESLEHLNASKTEIARILQISRQHLHGILKGERPVTAVTAARIGKLLGNGPALWLQLQANYDTWHALRDIDVSSIPTLTANEVDTQMEHSHS | not soluble |
| MSLKITAVKCILLSCPYAIPGDLEREFCFADGHRTISVIKVETDEGIHGLGETYIGVFAPEATQAIVRQLEVDLVGRDPMDTAGIANILKLATYYWGRFGMSASIAGGIEMALWDLKGKALGVPVHQLLGGKVHDHIPAYASGGNNKPFPELKKELLGYKKLGFGAVKIRINYLEPHEIIEKVAYSREVLGDKTGLGVDACQGVNPKAWNYKEAIGIVRSLEPYKLLFVEEPCEVTDYKGFAKIRAETDCVIAGGETVSSLVEAENYLEAGALDLFQPDAAIIGGISAFRRVAQMCERKFIKLAVHTWAGGVGIMGNYHAAFASPNCTLLELPNNPFPLREEFLVQPLTLVNGGIAAPTAPGLGVEGHHHHHH | soluble |
| MRLNIVVVGVGGQGALTTSGIIARAAMRAGLNVVTAETHGMAQRGGSVEVHVRIGDVRAPLIPEGGADVMIALEPAEALRYAKFLNKNTLVILNTRKIIPPSVTAGTAKYPELDEIIGELRKVTPRVIPVNASEIAEKAGSVLATNVVVVGMLFGYYSMPFGIEHVEEAIRETMKSKIVDLNLKALKMGYNQAI | not soluble |
| MDQFVNHLSCTALLVGKKASVDGSTMIARNEDASGGINPKRFIVVQPADQPQRYVSTFNGFQLDLPQTPLQYTCTPVADQSHGTWGEAGINSENVAMSATETEFTNTTMLGLDPLEPDGIGEEAMLTVVLPYIHNAREGVERLGELVTKYGTCESNGIAFSDANEIWYFETVGGHHWAAERIPDDRYVLAPNQTGIQEIDFQAPEHYKYSADLKDFAAKYHLNKAKEGFNFRDIFGEDTQADHYYNTPRVWYAQKMLNPEIDQDPESRTMPFSRVPSHLISVEDVAMVLSSHYQATDFDPYGQTGTPETRRRYRPIGMNRNQEMHILQIRPNMPKSHAAIHWLAEGVNIFNSPVPFFANCTTTPENFQYTPIDKSSTDSFYWLNKLIAMVADPLFAEHDWDAEFAVSESRKFGFAAGRAAVAKGDAAFADVKPEDLPAWHDALNAETAATITNDLQYLLHQLVCIRAEKMTPSFEKGGELLEHHHHHH | not soluble |
| NEKITKKDALELFSLPIHAVGRIADEIRKVKCGDLVTFVNDTNINYTNICLSKCRFCAFYAREKGYVLSHEEILRKVGYAVKMGATQIMLQGGMNPDLGLEWFEELFRKIKARFSSVHIHSLSPPEIVFLAKLERSSIREVLDRLKAAGLDSLPGGGAEILVDSVRRKISPNKCSSDEWLRVMETAHSLNMPTTATMMFGHVESDGDIVEHLIKIRELQEKTGGFTAFIPWTFQPGNTELYAEIKRPVSPLRYLQVLAISRIVLNNFRNIQASWLTQGFEIATLSLFFGANDFGGTMLEENVVRATGKDFRPAKIEEIVKAVKAVGRPVALR | soluble |
| MSLRTNEHNFHNIEEEIKHVAVYLRLSRGEDESELDNHKTRLLNRCELNNWSYELYKEIGSGSTIDDRPVMQKLLTDVEKNLYDAVLVVDLDRLSRGNGTDNDRILYSMKVSETLIVVESPYQVLDANNESDEEIILFKGFFARFEFKQINKRMREGKKLAQSRGQWVNSVTPYGYIVNKTTKKLTPSEEEAKVVIMIKDFFFEGKSTSDIAWELNKRKIKPRRATEWRSSSIANILQNEVYVGNIVYNKSVGNKKPSKSKTRVTTPYRRLPEEEWRRVYNAHQPLYSKEEFDRIKQYFECNVKSHKGSEGHHHHHH | soluble |
| EVQLVESGGGLVQPGGSLRLSCAASGFTFTSTGISWVRQAPGKGLEWVGRIYPTNGSTNYADSVKGRFTISADTSKNTAYLQMNSLRAEDTAVYYCARTYGIYDLYVDYTEYVMDYWGQGTLVTVSSASTKGPSVFPLAPSSKSTSGGTAALGCLVKDYFPEPVTVSWNSGALTSGVHTFPAVLQSSGLYSLSSVVTVPSSSLGTQTYICNVNHKPSNTKVDKKVEPKSCDKTHT | soluble |
| MGSDKIHHHHHHMLDSPLSLLAGVGAEIAAGNLIPFLGPDVLTIEAEPPVPVGARTLSLALASKVGVPGRIKNNLWHSAQYIETHKHRVTLDKLMAAFFQPIPEPNALHRWLAGLPKLPMVVDTWYDGAMKAAFEAVGRESWGIVQGCSKARRLDGGVWFRAVSPDGAIVAEDVAESWRTVLYKPHGAAQPTGDVLVSDSDYVEVLTDIDIGTPIPQLVKDRRSNRGFVFLGCRFYDQILRTFARQISKRCGGPRYAVVPEELTRNELKFLEVEGITPITMPLAEAVALMTAAKTA | not soluble |
| MGSDKIHHHHHHMFLLPSTITRNVIFISHATPEDNDFTIWLASRLQAEGFEVWIDKQALVGGEKFWQEIDQVIRHKAVKFLLVYSENICYQKQRGILKNGVAKEISMAEGIATTNGLKDFMILLNVDGSEYNLFIGADTLNQVPFYENWAGGYSQLRKKFKKEGLEPTGSPVGDFSKWYEDEYVIHHGIENLHEIYYDCWWPIPELPESFFVYIFPNNVVASQVHQRSKYPTGKASNILASFYDTSEFEVEIDGQLERIPFTAKHEIKVSDVIARTVRLGFPGTRDVENYFRSLLQRTFHLIMKERHLHWYEMANMKQAYFFSAKSHPKIKFEYPHRATKAGKSKVIFGKHLSSFWHYALSAKPIITPQLAFGLKSHIVFTTDGVKLWDDKAKMHTARRRKGRLMFNEEWRDLLFAFLHALCQGGTTVNIMLNPTFELALKPWTNTYHSDFGYIEPKGQDRHDILAAEYEYQDREDIDPDEVANV | not soluble |
| MEKLNRAADDSMINTLSEKSNEFSFYQAVLLLEKHYQFEPNSNFVAVGENKYFHQERIEFSVSPNLCFPKSDMEFIVHMERNGQQYSRVETNFLGLHGSSSPLPVSYTEKLTGREPDDNPVKDFFDFFHNRYTSLLYRVWKKYRYHVQYQSGATDAFSGRMLHLAGLSGVMQDCGVAELDRAKVLSYVNQLSTRTRSPKLISGIVSHYFSLPSVRIEEWVYRRVEIADSQRNKLNRANCILGQSFHLGQSIADLNGKFNLCIDDIDFETFKQFSYEGELHKTLVGLMRFILRDPMSWDLKLTVNLDSIPNNQLGNGEGNNLGQTFWLGNPTDEDVKIRVIGSI | not soluble |
| MGGSHHHHHHGMASALYAKGGKGSAVPSDSQAREKLALYVYEYLLHIGAQKSAQTFLSEIRWEKNITLGEPPGFLHSWWCVFWDLYCAAPDRREACEHSGEAKAFQDYSAAAAPSPVMGSMAPGDTMAAGSMAAGFFQGPPGSQPSPHNPNAPMMGPHGQPFMSPRFPGGPRPTLRMPSQPPAGLPGSQPLLPGAMEPSPRAQGHPSMGGPMQRVTPPRGMASVGPQSYGGGMRPPPNSLAGPGLPAMNMGPGVRGPWASPSGNSIPYSSSSPGSYTGPPGGGGPPGTPIMPSPGDSTNSSENMYTIMNPIGQGAGRANFPLGPGPEGPMAAMSAMEPHHVNGSLGSGDMDGLPKSSPGAVAGLSNAPGTPRDDGEMAAAGTFLHPFPSESYSPGMTMSV | not soluble |

Source: the DeepSol protein solubility set
